Where a chain is given by its changes, count along the chain named. Each block holds one binder with its values, some of them ahead of it.
Target: β2-adrenergic receptor (Homo sapiens (Human)., UniProt P07550)
Assay: linear dichroism

- binding result: binds
B1: NB80-eGFP-HRas (VHH)
VHH: QVQLQESGGGLVQAGGSLRLSCAASGSIFSINTMGWYRQAPGKQRELVAAIHSGGSTNYANSVKGRFTISRDNAANTVYLQMNSLKPEDTAVYYCNVKDYGAVLYEYDYWGQGTQVTVSS

- binding result: binds
B2: NB80Lite-eGFP-HRas (VHH)
VHH: B1 VHH with H52S, S56G, T57S, N58A

From paper doi:10.1101/2024.02.23.581811 (bioRxiv, 2024)
